Experiments:
IL-6 mRNA [1] = test: IL-6 mRNA expression by real-time PCR, bleomycin model, plasminogen combined with pirfenidone (Example 3); type: in vivo, mouse
Procedure: (§1) Male C57BL6 mice are administered intratracheal instillation of bleomycin sulphate (0.007 mg/mouse) at day 0. Human plasminogen was administered subcutaneously at day 10 and day 14, at a dose of either 6 mg/kg, 20 mg/kg, or 60 mg/kg. Animals were sacrificed at day 21. Collagen was quantified by histologic analysis using the staining Red sirus staining (Fluorescence) and analysed at a magnification of 400×. Collagen quantification was performed by segmentation with Image Pro Premier software, and using a sample of 20 fields located in the inflammatory lesions of the lungs. The quantity of collagen has been reported for the total surface of the regions containing inflammatory lesions. This method of quantification allows exclusion of the endogenous content of collagen that is normally contained in the tissue. […] CTGF, IL-6 and PAI-1 mRNA expressions were quantified by real-time PCR using mouse Taqman® Gene-Expression assay normalized to HPRT1 endogenous control (Student's t-test).
(§2) Pulmonary fibrosis in mice is induced by intratracheal instillation of the anticancer drug bleomycin into the mouse. […] Collagen was quantified by histologic analysis using the staining Red sirus staining (Fluorescence) and analysed as described in Example 2. IL-6 mRNA expression was quantified by real-time PCR using mouse Taqman® Gene-Expression assay normalized to HPRT1 endogenous control (Student's t-test).

[2] = test system: collagen in the inflammatory lesions of the lungs; test: Collagen quantification in inflammatory lesions of the lungs, bleomycin model, plasminogen combined with pirfenidone (Example 3); type: in vivo, mouse; details: bleomycin-induced mice, day 28, FIG. 8
Procedure: as §1, §2

PAI-1 mRNA = PAI-1 mRNA expression by real-time PCR, bleomycin-induced pulmonary fibrosis mouse model (Example 2); type: in vivo; details: human plasminogen at all doses (6, 20, 60 mg/kg) subcutaneously at day 10 and day 14; bleomycin-induced mice; day 21; FIG. 7
Text: (§3) Pulmonary fibrosis in mice is induced by intratracheal instillation of bleomycin into the mouse. Bleomycin is well-known anticancer drug. First, the bleomycin insult results in an acute inflammation as soon as day 1. Later at about day 10 to day 14, fibrotic events arise and create a chronic fibrotic condition. The bleomycin-induced mice is recognized as an animal model for pulmonary fibrosis. The evaluation of the activity of plasminogen is undertaken by treatment of the mice with plasminogen at appropriate time points. In the present study, plasminogen was administered at day 10 and day 14.
(§4) Male C57BL6 mice are administered intratracheal instillation of bleomycin sulphate (0.007 mg/mouse) at day 0. Human plasminogen was administered subcutaneously at day 10 and day 14, at a dose of either 6 mg/kg, 20 mg/kg, or 60 mg/kg. […] Collagen was quantified by histologic analysis using the staining Red sirus staining (Fluorescence) and analysed at a magnification of 400×. Collagen quantification was performed by segmentation with Image Pro Premier software, and using a sample of 20 fields located in the inflammatory lesions of the lungs. The quantity of collagen has been reported for the total surface of the regions containing inflammatory lesions. This method of quantification allows exclusion of the endogenous content of collagen that is normally contained in the tissue. […]

[3] = test system: collagen in the inflammatory lesions of the lungs; test: Collagen quantification in inflammatory lesions of the lungs, bleomycin-induced pulmonary fibrosis mouse model (Example 2); type: in vivo; details: human plasminogen 60 mg/kg subcutaneously at day 10 and day 14; bleomycin-induced mice; measured at day 21; FIG. 4
Text: as §3, §4

IL-6 mRNA [4] = test: IL-6 mRNA expression by real-time PCR, bleomycin-induced pulmonary fibrosis mouse model (Example 2); type: in vivo; details: human plasminogen 6, 20 or 60 mg/kg subcutaneously at day 10 and day 14; bleomycin-induced mice; day 21; not dose-dependent; FIG. 6
Text: as §3, §4

CTGF mRNA = CTGF mRNA expression by real-time PCR, bleomycin-induced pulmonary fibrosis mouse model (Example 2); type: in vivo; details: human plasminogen 6, 20 or 60 mg/kg subcutaneously at day 10 and day 14; bleomycin-induced mice; day 21; not dose-dependent; FIG. 5
Text: as §3, §4

Molecule: Cc1ccc(=O)n(-c2ccccc2)c1 [pirfenidone, reference compound]
- IL-6 expression versus non-treated bleomycin-induced mice (IL-6 mRNA [1]; pirfenidone alone, 400 mg/kg oral once a day from day 7 to day 27, day 28, FIG. 9): not significantly different
- fibrosis (collagen expression in the inflammatory lesions of the lungs) ([2]; pirfenidone alone, 400 mg/kg oral once a day from day 7 to day 27): efficient to reduce fibrosis

B1: plasminogen: Glu-plasminogen purified from pooled human plasma, purity above 95%; used in Example 2 (protein, UniProt P00747 20-810, looked up)
Plasminogen: EPLDDYVNTQGASLFSVTKKQLGAGSIEECAAKCEEDEEFTCRAFQYHSKEQQCVIMAENRKSSIIIRMRDVVLFEKKVYLSECKTGNGKNYRGTMSKTKNGITCQKWSSTSPHRPRFSPATHPSEGLEENYCRNPDNDPQGPWCYTTDPEKRYDYCDILECEEECMHCSGENYDGKISKTMSGLECQAWDSQSPHAHGYIPSKFPNKNLKKNYCRNPDRELRPWCFTTDPNKRWELCDIPRCTTPPPSSGPTYQCLKGTGENYRGNVAVTVSGHTCQHWSAQTPHTHNRTPENFPCKNLDENYCRNPDGKRAPWCHTTNSQVRWEYCKIPSCDSSPVSTEQLAPTAPPELTPVVQDCYHGDGQSYRGTSSTTTTGKKCQSWSSMTPHRHQKTPENYPNAGLTMNYCRNPDADKGPWCFTTDPSVRWEYCNLKKCSGTEASVVAPPPVVLLPDVETPSEEDCMFGNGKGYRGKRATTVTGTPCQDWAAQEPHRHSIFTPETNPRAGLEKNYCRNPDGDVGGPWCYTTNPRKLYDYCDVPQCAAPSFDCGKPQVEPKKCPGRVVGGCVAHPHSWPWQVSLRTRFGMHFCGGTLISPEWVLTAAHCLEKSPRPSSYKVILGAHQEVNLEPHVQEIEVSRLFLEPTRKDIALLKLSSPAVITDKVIPACLPSPNYVVADRTECFITGWGETQGTFGAGLLKEAQLPVIENKVCNRYEFLNGRVQSTELCAGHLAGGTDSCQGDSGGPLVCFEKDKYILQGVTSWGLGCARPNKPGVYVRVSRFVTWIEGVMRNN
- PAI-1 mRNA expression (overexpression of PAI-1 in lungs) (PAI-1 mRNA): reduced
- collagen expression in the inflammatory lesions [3]: significantly reduced
- IL-6 mRNA expression (IL-6 mRNA [4]): significantly reduced
- IL-6 mRNA expression (IL-6 mRNA [1]; murine plasminogen alone, 6 mg/kg subcutaneously at days 7, 10, 13, 16, 19 and 23, bleomycin-induced mice, day 28, FIG. 9): inhibits IL-6 mRNA expression
- fibrosis (collagen expression in the inflammatory lesions of the lungs) ([2]; murine plasminogen alone, 6 mg/kg subcutaneously at days 7, 10, 13, 16, 19 and 23): efficient to reduce fibrosis
- mRNA expression of CTGF (CTGF mRNA): significantly reduced

— patent US11826404B2, “Plasminogen treatment of conditions associated with PAI-1 overexpression” (PROMETIC BIOTHERAPEUTICS, INC., priority 2017, dated 2023)
